*1 amine or outer side, *2 acyl side, *3 side chain or, on linkers, in order; H or OH if unused. Bridges are numbered along the chain shown (N, C = ends). Primed or numbered codes have the meaning given here. [ ]: non-standard residue; d: D form. Phe(4-(2-acetylaminoethoxy))″ = 4-(2-acetylaminoethoxy)phenylalanine, CC(=O)NCCOc1ccc(C[C@H](N[*:1])C(=O)[*:2])cc1; Phe(4-OMe)(4) = O-methyl-L-tyrosine, COc1ccc(C[C@H](N[*:1])C(=O)[*:2])cc1; 2Nal = N[C@@H](Cc1ccc2ccccc2c1)C(=O)O; AEF = NCCOc1ccc(C[C@H](N)C(=O)O)cc1; Cit = NC(=O)NCCC[C@H](N)C(=O)O; αMeOrn = C[C@](N)(CCCN)C(=O)O; Pen = CC(C)(S)[C@H](N)C(=O)O; αMeK = C[C@](N)(CCCCN)C(=O)O; Orn = NCCC[C@H](N)C(=O)O; Dab = NCC[C@H](N)C(=O)O; Abu = CC[C@H](N)C(=O)O; Dap = NC[C@H](N)C(=O)O; Aib = CC(C)(N)C(=O)O

Experiment [1] addresses IL23R_huFC (human) (UniProt Q5VWK5). Description: IL23-IL23R competitive binding ELISA. On the technique in general: ELISA stands for enzyme-linked immunosorbent assay.
Target sequence in this assay (Q5VWK5 24-353 limits assumed): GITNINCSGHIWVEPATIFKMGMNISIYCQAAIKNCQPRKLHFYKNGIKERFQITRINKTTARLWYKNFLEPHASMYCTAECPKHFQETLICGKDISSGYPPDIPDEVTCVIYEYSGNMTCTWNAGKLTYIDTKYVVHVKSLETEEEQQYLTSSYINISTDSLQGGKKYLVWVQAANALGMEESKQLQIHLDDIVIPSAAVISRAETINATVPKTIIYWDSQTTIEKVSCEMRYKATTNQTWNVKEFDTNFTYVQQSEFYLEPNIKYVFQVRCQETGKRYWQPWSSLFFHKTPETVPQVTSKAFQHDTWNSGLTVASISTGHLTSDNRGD
In a further experiment the target is Rat IL-23R_huFC (rat) (UniProt F1LX96). Description: rat IL-23R competitive binding ELISA.
For experiment [2], the target named is IL23R_huFC (human) (UniProt Q5VWK5). The experiment can be described thus: human ELISA vs IL-23.
Target sequence in this assay (Q5VWK5 24-353): as the sequence (Q5VWK5 24-353 limits assumed) above

For orientation: IC50 means the concentration at which inhibition is half-maximal. Turning to XQTWQXYXXENG (Ac; Pen-Pen disulfide; 1-Nal; α-MeOrn; NH2) [Ac-[Pen]-QTWQ-[Pen]-Y-[1-Nal]-[α-MeOrn]-ENG-NH2], the IC50 in the experiment with IL23R_huFC (human) [1] and with Rat IL-23R_huFC (rat) was 100 to 1000 nM each time.
Consider Ac-[Abu]QTWQC[AEF][2Nal][Aib]E[Dap](Ac)G-NH2 (thioether 1-6) [Ac-Cyclo-[[Abu]-QTWQC]-[Phe[4-(2-aminoethoxy)]]-[2-Nal]-[Aib]-E-[Dap(Ac)]-G-NH2], for which, in the experiment with IL23R_huFC (human) [2], the IC50 is 10 to 25 nM.
Molecule XNTWQXFXXKNA (Ac; Pen-Pen disulfide; Phe[4-(2-aminoethoxy)]; 2-Nal; Aib; Lys(Ac); βAla; NH2) [Ac-[Pen]-NTWQ-[Pen]-[Phe[4-(2-aminoethoxy)]-[2-Nal]-[Aib]-[Lys(Ac)]-N-[βAla]-NH2] displayed a 50% inhibitory concentration (IC50) in the experiment with Rat IL-23R_huFC (rat) of 10 to 25 nM.
Take Ac-[Pen][Dap]TWQ[Pen][AEF][2Nal][αMeK]ENG-NH2 (disulfide 1-6 (inferred)) [Ac-[Pen]-[Dap]-TWQ-[Pen]-[Phe[4-(2-aminoethoxy)]-[2-Nal]-[α-MeLys]-ENG-NH2]: the IC50 with IL23R_huFC (human) [1] is less than 10 nM; in the experiment with Rat IL-23R_huFC (rat), 25 to 100 nM.
For the molecule Ac-[Abu]QTWQC[AEF][2Nal][Cit][Dap]NG-NH2 (thioether 1-6) [Ac-Cyclo-[[Abu]-QTWQC]-[Phe[4-(2-aminoethoxy)]]-[2-Nal]-[Cit]-[Dap]-NG-NH2], in the experiment with IL23R_huFC (human) [2], the IC50 was 10 to 25 nM.
On to Ac-[Pen][αMeOrn](Ac)TWQ[Pen][Phe(4-(2-acetylaminoethoxy))″][2Nal][αMeK](Ac)ENG-NH2 (disulfide 1-6 (inferred)) [Ac-[Pen]-[α-MeOrn(Ac)]-TWQ-[Pen]-[Phe[4-(2-acetylaminoethoxy)]-[2-Nal]-[α-MeLys(Ac)]-ENG-NH2], for which the IC50 in the experiment with IL23R_huFC (human) [1] was in the range of 100 to 1000 nM.

B1: [Ac-[Pen]-NTWQ-[Pen]-[Phe(4-CONH2)]-[2-Nal]-[Aib]-KNN-NH2]2DIG (peptide)
peptide: XNTWQXFXXKNN
modifications: Ac; Pen-Pen disulfide; Phe(4-CONH2); 2-Nal; Aib; NH2; DIG linker joins the two subunits
B1: the IC50 with IL23R_huFC (human) [1] was less than 10 nM; with Rat IL-23R_huFC (rat) it was 10 to 25 nM.
On to Ac-[Abu]QTWQC[AEF][2Nal][Aib]E[Dab](Ac)G-NH2 (thioether 1-6) [Ac-Cyclo-[[Abu]-QTWQC]-[Phe[4-(2-aminoethoxy)]]-[2-Nal]-[Aib]-E-[Dab(Ac)]-G-NH2], for which the 50% inhibitory concentration (IC50) with IL23R_huFC (human) [2] was less than 10 nM.
As to Ac-[Pen][αMeOrn]TWQ[Pen][AEF][2Nal][αMeK]ENG-NH2 (disulfide 1-6 (inferred)) [Ac-[Pen]-[α-MeOrn]-TWQ[Pen]-[Phe[4-(2-aminoethoxy)]-[2-Nal]-[α-MeLys]-ENG-NH2], the IC50 with IL23R_huFC (human) [1] fell in the range of 100 to 1000 nM.
In the experiment with IL23R_huFC (human) [1], XQTWQXFXXENN (Ac; Pen-Pen disulfide; Phe[4-(2-aminoethoxy)]; 2-Nal; Aib; NH2) [Ac-[Pen]-QTWQ-[Pen]-[Phe[4-(2-aminoethoxy)]-[2-Nal]-[Aib]-ENN-NH2] registered an IC50 of less than 10 nM.
Take Ac-[Pen][Dap](Ac)TWQ[Pen][Phe(4-(2-acetylaminoethoxy))″][2Nal][αMeK](Ac)ENG-NH2 (disulfide 1-6 (inferred)) [Ac-[Pen]-Dap(Ac)TWQ-[Pen]-[Phe[4-(2-acetylaminoethoxy)]-[2-Nal]-[α-MeLys(Ac)]-ENG-NH2]: the 50% inhibitory concentration (IC50) in the experiment with IL23R_huFC (human) [1] lay in the range of 10 to 25 nM.
XQTWQXFXXKNN (Ac; Pen-Pen disulfide; Phe[4-(2-aminoethoxy)]; 2-Nal; Aib; Lys(Ac); NH2) [Ac-[Pen]-QTWQ-[Pen]-[Phe[4-(2-aminoethoxy)]-[2-Nal]-Aib-[Lys(Ac)]-NN-NH2]: the IC50 with IL23R_huFC (human) [1] is less than 10 nM.
With XNTWQXFXXKNN (Ac; Pen-Pen disulfide; Phe[4-(2-aminoethoxy)]; 2-Nal; Aib; Lys(Ac); NH2) [Ac-[Pen]-NTWQ-[Pen]-[Phe[4-(2-aminoethoxy)]-[2-Nal]-[Aib]-[Lys(Ac)]-NN-NH2], the IC50 with IL23R_huFC (human) [1] and with Rat IL-23R_huFC (rat) was less than 10 nM each time.
The molecule XQTWQXFXXKNN (Ac; Pen-Pen disulfide; Phe[4-(2-acetylaminoethoxy)]; 2-Nal; Aib; Lys(Ac); NH2) [Ac-[Pen]-QTWQ-[Pen]-[Phe[4-(2-acetylaminoethoxy)]-[2-Nal]-[Aib]-[Lys(Ac)]-NN-NH2] yielded an IC50 with IL23R_huFC (human) [1] of less than 10 nM.
In turn, Ac-[Abu]QTWQC[AEF][2Nal][Orn][Dap](Ac)NG-NH2 (thioether 1-6) [Ac-Cyclo-[[Abu]-QTWQC]-[Phe[4-(2-aminoethoxy)]]-[2-Nal]-[Orn]-[Dap(Ac)]-NG-NH2] displayed an IC50 with IL23R_huFC (human) [2] of 25 to 100 nM.

B2: Ac-[Pen]-QTWQ-[Pen]-[2-Nal]-[2-Nal]-[α-MeLys]-ENG-NH2 (peptide)
peptide: Ac-[Pen]QTWQ[Pen][2Nal][2Nal][αMeK]ENG-NH2
modifications: disulfide 1-6
SMILES: CC(=O)N[C@@H]1C(=O)N[C@@H](CCC(N)=O)C(=O)N[C@@H]([C@@H](C)O)C(=O)N[C@@H](Cc2c[nH]c3ccccc23)C(=O)N[C@@H](CCC(N)=O)C(=O)N[C@H](C(=O)N[C@@H](Cc2ccc3ccccc3c2)C(=O)N[C@@H](Cc2ccc3ccccc3c2)C(=O)N[C@@](C)(CCCCN)C(=O)N[C@@H](CCC(=O)O)C(=O)N[C@@H](CC(N)=O)C(=O)NCC(N)=O)C(C)(C)SSC1(C)C
Regarding B2, the IC50 with IL23R_huFC (human) [1] and with Rat IL-23R_huFC (rat) was 100 to 1000 nM in each case.
With XQTWQXYXXENG (Ac; Pen-Pen disulfide; 2-Nal; α-MeOrn; NH2) [Ac-[Pen]-QTWQ-[Pen]-Y-[2-Nal]-[α-MeOrn]-ENG-NH2], the IC50 in the experiment with IL23R_huFC (human) [1] lay in the range of 25 to 100 nM; in the experiment with Rat IL-23R_huFC (rat), 100 to 1000 nM.
Ac-[Abu]QTWQC[Phe(4-OMe)(4)][2Nal][Orn][Dap]NG-NH2 (thioether 1-6) [Ac-Cyclo-[[Abu]-QTWQC]-[Phe(4-OMe)]-[2-Nal]-[Orn]-[Dap]-NG-NH2] yielded an IC50 in the experiment with IL23R_huFC (human) [2] of 100 to 1000 nM.
In the experiment with IL23R_huFC (human) [1], XQTWQXFXXENN (Ac; Pen-Pen disulfide; Phe[4-(2-acetylaminoethoxy)]; 2-Nal; Aib; NH2) [Ac-[Pen]-QTWQ-[Pen]-[Phe[4-(2-acetylaminoethoxy)]-[2-Nal]-[Aib]-ENN-NH2] came in with an IC50 of 10 to 25 nM.
For Ac-[Abu]QTWQC[AEF][2Nal][Orn][Dap]NG-NH2 (thioether 1-6) [Ac-Cyclo-[[Abu]-QTWQC]-[Phe[4-(2-aminoethoxy)]]-[2-Nal]-[Orn]-[Dap]-NG-NH2], the IC50 in the experiment with IL23R_huFC (human) [2] is 25 to 100 nM.

B3: [Ac-[Pen]-NTWQ-[Pen]-[Phe(4-CONH2)]-[2-Nal]-[Acvc]-KNN-NH2]2DIG (peptide)
peptide: XNTWQXFXXKNN
modifications: Ac; Pen-Pen disulfide; Phe(4-CONH2); 2-Nal; Acvc; NH2; DIG linker joins the two subunits
For the molecule B3, the IC50 in the experiment with IL23R_huFC (human) [1] was less than 10 nM; with Rat IL-23R_huFC (rat) it was 10 to 25 nM.
Regarding XQTWQXFXXKNG (Ac; Pen-Pen disulfide; Phe(4-OMe); 2-Nal; α-MeOrn; Lys(Ac); NH2) [Ac-[Pen]-QTWQ-[Pen]-[Phe(4-OMe)]-[2-Nal]-[α-MeOrn]-[Lys(Ac)]-NG-NH2], in the experiment with IL23R_huFC (human) [1], the IC50 lay within 100 to 1000 nM.

The values above are taken from US20190300590A1.
